This series has as its system Saccharomyces cerevisiae. In words: transcriptional activation domain activity (GFP:mCherry ratio, weighted mean of sorted bins, harmonized to initial dataset scale) (arbitrary fluorescence ratio units); higher = stronger transcriptional activation. Particulars: beta-estradiol 1 µM; induction time 4 h. In outline: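 Activation activity, the read-weighted mean of bin median fluorescence averaged across barcodes, was linearly mapped onto the scale of the initial dataset. It was measured for barcoded protein tiles fused to an estradiol-inducible synthetic transcription factor at URA3 in GFP-reporter yeast diploids. Cultures diluted 1:5 into SC with 1 uM beta-estradiol were held 4 hours at 30 °C, sorted into 8 bins by GFP:mCherry ratio, and barcode-sequenced, and tiles under 50 reads were discarded.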

On to “RLEASKKRKARVEVDIVLERDCVVEGGEVRGRMEVRVHGSKRSEGLRVGAGKI”, for which the “transcriptional activation domain activity” value was found to be 44400.

Consider “PPPARAARPARRRGRGCQRRMSSRLCRGREGGGGGGVRLPVQVGVVMVVQLGR”, for which the “transcriptional activation domain activity” value was 73100. The same measure for “LGTTLLIVVKMLLNWETIDCWGLIYKKMVIGQFMSEMYRIAAGGGKRRVPWAK”: 60800; for “MQFSLLFFFCLLFPPLLLFLCSFFFSFLFLEIFGFVNCLGFRRSHFQRQALLV”: 54500; for “LVHGRWSYQRVADMHANFFYKNVIWTFGLFWYLPFNSFDATYLYHYTFILLCN”: 61000.

As to “HLLIKILATRFFLEAKKTTYAPLNDQGTLMPSVEWTIMAQLWRLARNKWFEAT”, the “transcriptional activation domain activity” value worked out at 51000. As for “STGLKPQDPSSDGLRKLALLNILLSGEEDVVSTIPAQRLVFLVKHLLECLKSD”, the “transcriptional activation domain activity” value is 24800.

In the case of “RFISTRSFLFIFLFDSFFFFSFFFLSLFFFFISFFSFSSFFFFIFTLYLSRAL”, the “transcriptional activation domain activity” value is 28300. The figure for “GNNKPRGNNQRGGARNVRNGAEAGDEEAPREQRDSRSSRGRGEGRGRGRGRGG” is 31700; for “LIYNVCTFSLFWIVYRYNLLYVNNFRFDTSGLLFPRALDQLFTGIYVMAVCLI” it is 89400.

As to “RIRKFTVLGATIVEPFMECVLNGVLGAFGFWVFFGVPRLWFFGWHLCYWLLVD”, the “transcriptional activation domain activity” value came to 86000. The same measure for “FTKVIKLVSHFVLYFINICFILITIFFGYFYNLIKFYILLTLYLVSLRTLLSL”: 47700. The figure for “SILLMQHNLYHFIHFFKKIRQVIEKGEYPSFKQELIQNLGQTGWWKFLNAKSL” is 59500; for “MVICFHSLFLQLTTCVLDLYLHYGFLVLFLFLFFIFFPASYFSAYFFFFFIFC” it is 35900.

For “MGSGDTFFYWKLFSFSLSLLTRFSPLYFGWPFLKTIPLFMYFFLCRVLPLFLM”, the “transcriptional activation domain activity” value came to 53400. The same measure for “AHYLNHNPHQPSMGFDQALGLKLSPSSSGLLSTNESNAIEQFLDNLISQDMMS”: 110000. Consider “NWYWLATTMYFLYGETVIYYFKHIVLVDKVLLPLATHHRFISFILYVFGFVFF”, for which the “transcriptional activation domain activity” value came out at 58300. The same measure for “RTTSLGVWFLLIQSLWYCAFGVLYVWFFCQTFESFNTLLVLDYILRFILCLMF”: 86900.

Turning to “DSNYLAFLKFDDLENEKFHSSASSISSPSYSSPSFSSYRNRKKSEFMDDESCT”, the “transcriptional activation domain activity” value came out at 73200. The same measure for “DLIQTKQLQNALLTHPRRNTLTGLQFTMQNVLDLLKYILTMILYRPSQFRWAA”: 82500. For the sequence “SPSSGLNINFFYHEVLMVLSLFNSMTRPDVMRWYAKTRFYHIVNLTAWQIYPC”, the “transcriptional activation domain activity” value was 57400.

On to “DADGNPTGDGEPPKKRRRRQALSCTECKRRKIKCDRNHPCSPCARRGDGQKCQ”, for which the “transcriptional activation domain activity” value was 13000. The same measure for “MIPSYLSHGRAAIIAIRLVLALYFFWHPLVLFLSSLKLITPCICLHLLFAFWI”: 62500. The figure for “AMFAVSILIMIQVNTSAVFFAVDTMLLYLCMELGFTFIYTILVTSRLLVMRCQ” is 56600; for “QVPEQVPEQAPEPEKVAEEIVKEEVKKPEEPKAPTPSPAPVAAPRAAAPPAAE” it is 29500; for “MRLLYCFFHPGRIFDWFCWIHHVFLLVFGWLPLDWLYNLWGLGSLPWTLQNMP” it is 47300. The figure for “FFFFLLLLLLFFFLLRFLLLVYYYPNHPTHTYQPISFQFQPTHQIHHNALQHH” is 32200. Take “TAKLLLEDSMKKKRQEIQQLEQATHQRSNLETTHLLDIDWDALLDPSDTLNFM”: the “transcriptional activation domain activity” value was 90000. The same measure for “PFQFLLLKSLSIQKHSDLIIRGCSHFYVGVLSCILNFFLGSWSAWLKRFWYML”: 80300; for “MLCADLFFRFVLVKILVFILYDYGRGECDIVIMLVFFFFFPPPPPFFSFFFLF”: 65300; for “MAWHFVWQDIPLMGTMHQISYLLNNFIYCFPIAHVHLQVCFFSSLLLIHFYTF”: 68200. The figure for “TIHLVNTIQVIVLILDRFLYGIIPLFEIHTCAFFPLLISFWHVSYLLYYVIMF” is 37200; for “PEEEEQAEAGVDSSIVEIAPKRGRGRPRKSLPTEGTTAEAPAKRGRGRPKKVS” it is 27600; for “MSSLFFSFQAVQFWFLGFLGLSWFRLVSTSYNIVDFLSFLSVHHHVLSWLGIP” it is 63500. The same measure for “AGRWQYATLFFSGVSGGATLALSLCVITHPSLLTRIVVICIFVTLISAFTILP”: 27900. On to “KSGRGGGRKGGRGGGKASARGGAGGARGGGGGGRGGGGAHTERGRTGKGAGAS”, for which the “transcriptional activation domain activity” value was 21800.

As to “VILGYCSLFVWFAVCGFCFLCFCVFVFLCFLFFVFFWHSSLGYLAGLAIIITF”, the “transcriptional activation domain activity” value is 18300. The same measure for “PFFSLDNIMATFDTSTGKLRIWGIRAKPRFVWFCSKEHLLPCMNVKMIRYNSI”: 64600; for “LGLDSGYLWSGILYNVSVTVSLYSLGMFWVCMSKDLQPFRPVPKFLCIKLIIF”: 62400. The same measure for “MLTILAQNQWFYIIVYIILSYLVIFIIGLFPSVLFFRLRHLHYSFSFYLEYLA”: 32700; for “LWLYLAKQLFYEDLGWFFLLLAFYFTWPLIFLLFLIFWMLFVLVYVLFYLVSF”: 52300; for “SKGNSINTFLEQVTFQVVPMLIDLCVAIGYFLVAFDAYYALVVAIVTFCYLYV”: 44100. With “SQLYFNVYPNELDERFSLFDPTYSLQWLFEHLFTTRVVELTRMLCFVMCIFVL”, the “transcriptional activation domain activity” value is 37700.

Consider “SQQRLEVSAMYLFWHMDTVRGLCVRMPGTVMTRAHFFRLLTYYFAMLFLSAAL”, for which the “transcriptional activation domain activity” value worked out at 57000. The figure for “EGLGTAWLFKKEDLLCKSAYEIATISNSWLCGVQGTLLMYLVLVLLCLSFFLI” is 30800; for “MLPRLFFVAFATIPSPSSPLPPLPFLSSLAFFFSFFPHLISFLFVFFSFHTFF” it is 51400. With “TSDTGKKRQIKEEAEEESEEEPPTKRQRRKPVEEKETPKKAAAKPKADKVPAK”, the “transcriptional activation domain activity” value came to 40500. Regarding “SGSGAEGASGTEHRRRTSTRGRGRGRGRGGRTGRGGRTANDAEGAEGAEADAS”, the “transcriptional activation domain activity” value came to 27900.

Consider “AKRARKSSSSAAAKEEEGQPQQTAPAAAANGTAADEARADTTTASTKSDKKQK”, for which the “transcriptional activation domain activity” value amounted to 28800. The same measure for “MLDVNMSCPFADIRYLLVFSCYFADYLLMLQIWGFCLWLFTLIYMVGGVWLMV”: 34300; for “RSESGSPARRKKKRSSRDSEDSAGESSDSDAGARRKSRKGKDSRRDRKSKKDK”: 37600. Regarding “SFIHSLLYAFLSFFPHLFISYFLSSFYYLSTHLFLSFFPFLVILFTSCYQNLS”, the “transcriptional activation domain activity” value turned out to be 57700.

Take “FSLGLRTPLDHLLLAFFVLCGLTRLARFNVTVAMLPKDATGKSQYFEGTPIPT”: the “transcriptional activation domain activity” value stood at 73300. In the case of “LVHFILTGSDFIWFFSYTPEAVALYLFLVEWSKLNYFWVALMYIWNVMPLFLL”, the “transcriptional activation domain activity” value stood at 63600. The figure for “MYSRIFIGLSFFLISFFISIIFLFICKEHSFSPIGFFLTRFLLFHVFSLFFTF” is 62800; for “PEALIQFNQVWVNHFKDPFTNIYYHQSPELSGSKYYELIYLRAFICLMFCFQF” it is 55100. For “SRAKVCGWADVFMVIAMHCLLGWSVTMTLYALRGGTRHIWDLEPLGVDNLIKA”, the “transcriptional activation domain activity” value was 35200.

With “RVVLRCLFLAYECIEEADVKSTLSYTIEVAFNLITSTCDYIGPVAMSHALRAG”, the “transcriptional activation domain activity” value was found to be 53900. The figure for “MADTTDPPAPRKRGRPPKNKEGGATAKPVTLGPDGLPRKRGRPRKNPVVEVAT” is 20300; for “MNYLELSLVILTCLWDILLVVTFCSYRRIFRRVNMVNIMTISLLKHLSVFCLF” it is 52300. The figure for “STDALLARLVGHLHINPVSQKLVVAFDKIATCLQEVRACIVQRILPFAQRYKQ” is 62400; for “RGWMVYIGFLVVFYSAAGFGLSVVNNFTLLIGVYKFVYPITTTLFQLIFTQIF” it is 50200; for “RKGEGEGSEPPHPAEPRRLRRSHEACARCRSKKIKCDSKHPRCTACATAGTPC” it is 23800.

Take “KGKQRSEGGGGNRKGGRPPRRIDEDAADSSSNDAGAEGGAKGSEPTKAAKAAS”: the “transcriptional activation domain activity” value turned out to be 33400. With “IIALLLRFYDPSSGKVLVGPDDLRNLNVRSLRSHIALVTQSPVLFSGTILDNI”, the “transcriptional activation domain activity” value came out at 42100. The figure for “QENHNSSENGNENENEQDSLALDDLDRAFELVEGMDMDWMMPSHAHHSPATTA” is 123000; for “FSLFGSFGCFGSLTLLLSLVMPVVLFVMLQWVMVWIWSCCFIFRLGMLTSFDV” it is 54500.

For “NEEQTINLINYVLTCSNTVIRNTVFRNKVLNLLVSMILALKTPDYFIIFKIVV”, the “transcriptional activation domain activity” value came out at 74300.

Take “DKQLDYEFIDKSGIIPSDNQSHPRISNIHDNAIDMVTLKNGEEVAISWYDISH”: the “transcriptional activation domain activity” value worked out at 59800. The figure for “MLHLPLFLLYFFFFSLLLYFSFFPSSFFFFLLSPPFPLLIFSLFLSFLLLFPP” is 40200; for “GVLMCYYSRSHNFDVAKRHFQRILNLLPLLKSTPNIFPLYGLIFSTMGLLVLI” it is 62600; for “VLPPLLLAILFAVLPFILRGLAWYECIPRYSLISVSVYRRFFLFLLIHGFLIV” it is 65300. The same measure for “RFMVVIVSLFPRLNYFMDAVGHVLSVYYFNHLACQWITTAITSLAIVLFALRT”: 53900. The figure for “FPAHFLSLLLTPISFSPLPIFPCTYINFLPLLQYLLLGNFFFGCIIWRPMTFC” is 59000.

For the origin of these results see the supplement of paper PMC12636428.
